To fix the notation:
B1: N^ε1-[2-[2-[2-[[(4S)-4-carboxy-4-(19-carboxynonadecanoylamino)butanoyl]amino]ethoxy]ethoxy]acetyl]-[Arg17,Pro21,Pro27]-h-amylin (peptide)
peptide: K([AEEA-γGlu-C20 diacid])CNTATCATQRLANFLRHSSPNFGAIPSSTNVGSNTY-NH2
modifications: disulfide 2-7; N-terminus assumed
SMILES: CC[C@H](C)[C@H](NC(=O)[C@H](C)NC(=O)CNC(=O)[C@H](Cc1ccccc1)NC(=O)[C@H](CC(N)=O)NC(=O)[C@@H]1CCCN1C(=O)[C@H](CO)NC(=O)[C@H](CO)NC(=O)[C@H](Cc1c[nH]cn1)NC(=O)[C@H](CCCNC(=N)N)NC(=O)[C@H](CC(C)C)NC(=O)[C@H](Cc1ccccc1)NC(=O)[C@H](CC(N)=O)NC(=O)[C@H](C)NC(=O)[C@H](CC(C)C)NC(=O)[C@H](CCCNC(=N)N)NC(=O)[C@H](CCC(N)=O)NC(=O)[C@@H](NC(=O)[C@H](C)NC(=O)[C@@H]1CSSC[C@H](NC(=O)[C@@H](N)CCCCNC(=O)COCCOCCNC(=O)CC[C@H](NC(=O)CCCCCCCCCCCCCCCCCCC(=O)O)C(=O)O)C(=O)N[C@@H](CC(N)=O)C(=O)N[C@@H]([C@@H](C)O)C(=O)N[C@@H](C)C(=O)N[C@@H]([C@@H](C)O)C(=O)N1)[C@@H](C)O)C(=O)N1CCC[C@H]1C(=O)N[C@@H](CO)C(=O)N[C@@H](CO)C(=O)N[C@H](C(=O)N[C@@H](CC(N)=O)C(=O)N[C@H](C(=O)NCC(=O)N[C@@H](CO)C(=O)N[C@@H](CC(N)=O)C(=O)N[C@H](C(=O)N[C@@H](Cc1ccc(O)cc1)C(N)=O)[C@@H](C)O)C(C)C)[C@@H](C)O
notes: also called compound 41
B2: N^ε1-[(4S)-4-carboxy-4-[[(4S)-4-carboxy-4-(19-carboxynonadecanoylamino)butanoyl]amino]butanoyl]-[Glu14,Arg17,Pro21,Pro27,His34,Glu35]-h-amylin (peptide)
peptide: K([γGlu-γGlu-C20 diacid])CNTATCATQRLAEFLRHSSPNFGAIPSSTNVGHETY-NH2
modifications: disulfide 2-7; N-terminus assumed
SMILES: CC[C@H](C)[C@H](NC(=O)[C@H](C)NC(=O)CNC(=O)[C@H](Cc1ccccc1)NC(=O)[C@H](CC(N)=O)NC(=O)[C@@H]1CCCN1C(=O)[C@H](CO)NC(=O)[C@H](CO)NC(=O)[C@H](Cc1c[nH]cn1)NC(=O)[C@H](CCCNC(=N)N)NC(=O)[C@H](CC(C)C)NC(=O)[C@H](Cc1ccccc1)NC(=O)[C@H](CCC(=O)O)NC(=O)[C@H](C)NC(=O)[C@H](CC(C)C)NC(=O)[C@H](CCCNC(=N)N)NC(=O)[C@H](CCC(N)=O)NC(=O)[C@@H](NC(=O)[C@H](C)NC(=O)[C@@H]1CSSC[C@H](NC(=O)[C@@H](N)CCCCNC(=O)CC[C@H](NC(=O)CC[C@H](NC(=O)CCCCCCCCCCCCCCCCCCC(=O)O)C(=O)O)C(=O)O)C(=O)N[C@@H](CC(N)=O)C(=O)N[C@@H]([C@@H](C)O)C(=O)N[C@@H](C)C(=O)N[C@@H]([C@@H](C)O)C(=O)N1)[C@@H](C)O)C(=O)N1CCC[C@H]1C(=O)N[C@@H](CO)C(=O)N[C@@H](CO)C(=O)N[C@H](C(=O)N[C@@H](CC(N)=O)C(=O)N[C@H](C(=O)NCC(=O)N[C@@H](Cc1c[nH]cn1)C(=O)N[C@@H](CCC(=O)O)C(=O)N[C@H](C(=O)N[C@@H](Cc1ccc(O)cc1)C(N)=O)[C@@H](C)O)C(C)C)[C@@H](C)O
B3: N^ε1-[(4S)-4-carboxy-4-[[(4S)-4-carboxy-4-(19-carboxynonadecanoylamino)butanoyl]amino]butanoyl]-[Glu14,Arg17,Pro21,Pro27,Pro34,Glu35]-h-amylin (peptide)
peptide: K([γGlu-γGlu-C20 diacid])CNTATCATQRLAEFLRHSSPNFGAIPSSTNVGPETY-NH2
modifications: disulfide 2-7; N-terminus assumed
SMILES: CC[C@H](C)[C@H](NC(=O)[C@H](C)NC(=O)CNC(=O)[C@H](Cc1ccccc1)NC(=O)[C@H](CC(N)=O)NC(=O)[C@@H]1CCCN1C(=O)[C@H](CO)NC(=O)[C@H](CO)NC(=O)[C@H](Cc1c[nH]cn1)NC(=O)[C@H](CCCNC(=N)N)NC(=O)[C@H](CC(C)C)NC(=O)[C@H](Cc1ccccc1)NC(=O)[C@H](CCC(=O)O)NC(=O)[C@H](C)NC(=O)[C@H](CC(C)C)NC(=O)[C@H](CCCNC(=N)N)NC(=O)[C@H](CCC(N)=O)NC(=O)[C@@H](NC(=O)[C@H](C)NC(=O)[C@@H]1CSSC[C@H](NC(=O)[C@@H](N)CCCCNC(=O)CC[C@H](NC(=O)CC[C@H](NC(=O)CCCCCCCCCCCCCCCCCCC(=O)O)C(=O)O)C(=O)O)C(=O)N[C@@H](CC(N)=O)C(=O)N[C@@H]([C@@H](C)O)C(=O)N[C@@H](C)C(=O)N[C@@H]([C@@H](C)O)C(=O)N1)[C@@H](C)O)C(=O)N1CCC[C@H]1C(=O)N[C@@H](CO)C(=O)N[C@@H](CO)C(=O)N[C@H](C(=O)N[C@@H](CC(N)=O)C(=O)N[C@H](C(=O)NCC(=O)N1CCC[C@H]1C(=O)N[C@@H](CCC(=O)O)C(=O)N[C@H](C(=O)N[C@@H](Cc1ccc(O)cc1)C(N)=O)[C@@H](C)O)C(C)C)[C@@H](C)O
B4: N{Alpha-1}-[(4S)-4-carboxy-4-(19-carboxynonadecanoylamino)butanoyl]-[Glu14,Arg17,Pro21,Pro27,Lys34]-h-amylin (peptide)
peptide: {C20 diacid-γGlu}-KCNTATCATQRLAEFLRHSSPNFGAIPSSTNVGKNTY-NH2
modifications: disulfide 2-7
SMILES: CC[C@H](C)[C@H](NC(=O)[C@H](C)NC(=O)CNC(=O)[C@H](Cc1ccccc1)NC(=O)[C@H](CC(N)=O)NC(=O)[C@@H]1CCCN1C(=O)[C@H](CO)NC(=O)[C@H](CO)NC(=O)[C@H](Cc1c[nH]cn1)NC(=O)[C@H](CCCNC(=N)N)NC(=O)[C@H](CC(C)C)NC(=O)[C@H](Cc1ccccc1)NC(=O)[C@H](CCC(=O)O)NC(=O)[C@H](C)NC(=O)[C@H](CC(C)C)NC(=O)[C@H](CCCNC(=N)N)NC(=O)[C@H](CCC(N)=O)NC(=O)[C@@H](NC(=O)[C@H](C)NC(=O)[C@@H]1CSSC[C@H](NC(=O)[C@H](CCCCN)NC(=O)CC[C@H](NC(=O)CCCCCCCCCCCCCCCCCCC(=O)O)C(=O)O)C(=O)N[C@@H](CC(N)=O)C(=O)N[C@@H]([C@@H](C)O)C(=O)N[C@@H](C)C(=O)N[C@@H]([C@@H](C)O)C(=O)N1)[C@@H](C)O)C(=O)N1CCC[C@H]1C(=O)N[C@@H](CO)C(=O)N[C@@H](CO)C(=O)N[C@H](C(=O)N[C@@H](CC(N)=O)C(=O)N[C@H](C(=O)NCC(=O)N[C@@H](CCCCN)C(=O)N[C@@H](CC(N)=O)C(=O)N[C@H](C(=O)N[C@@H](Cc1ccc(O)cc1)C(N)=O)[C@@H](C)O)C(C)C)[C@@H](C)O
notes: also called compound 36
B5: N^-1-[(4S)-4-carboxy-4-(19-carboxynonadecanoylamino)butanoyl]-Gly[Arg1,Arg17,Pro21,Pro27]-h-amylin (peptide)
peptide: {C20 diacid-γGlu}-GRCNTATCATQRLANFLRHSSPNFGAIPSSTNVGSNTY-NH2
modifications: disulfide 3-8
SMILES: CC[C@H](C)[C@H](NC(=O)[C@H](C)NC(=O)CNC(=O)[C@H](Cc1ccccc1)NC(=O)[C@H](CC(N)=O)NC(=O)[C@@H]1CCCN1C(=O)[C@H](CO)NC(=O)[C@H](CO)NC(=O)[C@H](Cc1c[nH]cn1)NC(=O)[C@H](CCCNC(=N)N)NC(=O)[C@H](CC(C)C)NC(=O)[C@H](Cc1ccccc1)NC(=O)[C@H](CC(N)=O)NC(=O)[C@H](C)NC(=O)[C@H](CC(C)C)NC(=O)[C@H](CCCNC(=N)N)NC(=O)[C@H](CCC(N)=O)NC(=O)[C@@H](NC(=O)[C@H](C)NC(=O)[C@@H]1CSSC[C@H](NC(=O)[C@H](CCCNC(=N)N)NC(=O)CNC(=O)CC[C@H](NC(=O)CCCCCCCCCCCCCCCCCCC(=O)O)C(=O)O)C(=O)N[C@@H](CC(N)=O)C(=O)N[C@@H]([C@@H](C)O)C(=O)N[C@@H](C)C(=O)N[C@@H]([C@@H](C)O)C(=O)N1)[C@@H](C)O)C(=O)N1CCC[C@H]1C(=O)N[C@@H](CO)C(=O)N[C@@H](CO)C(=O)N[C@H](C(=O)N[C@@H](CC(N)=O)C(=O)N[C@H](C(=O)NCC(=O)N[C@@H](CO)C(=O)N[C@@H](CC(N)=O)C(=O)N[C@H](C(=O)N[C@@H](Cc1ccc(O)cc1)C(N)=O)[C@@H](C)O)C(C)C)[C@@H](C)O
notes: also called compound 46
B6: N^ε1-[2-[2-[2-(19-carboxynonadecanoylamino)ethoxy]ethoxy]acetyl]-[Arg17,Pro21,Pro27]-h-amylin (peptide)
peptide: K([AEEA-C20 diacid])CNTATCATQRLANFLRHSSPNFGAIPSSTNVGSNTY-NH2
modifications: disulfide 2-7; N-terminus assumed
SMILES: CC[C@H](C)[C@H](NC(=O)[C@H](C)NC(=O)CNC(=O)[C@H](Cc1ccccc1)NC(=O)[C@H](CC(N)=O)NC(=O)[C@@H]1CCCN1C(=O)[C@H](CO)NC(=O)[C@H](CO)NC(=O)[C@H](Cc1c[nH]cn1)NC(=O)[C@H](CCCNC(=N)N)NC(=O)[C@H](CC(C)C)NC(=O)[C@H](Cc1ccccc1)NC(=O)[C@H](CC(N)=O)NC(=O)[C@H](C)NC(=O)[C@H](CC(C)C)NC(=O)[C@H](CCCNC(=N)N)NC(=O)[C@H](CCC(N)=O)NC(=O)[C@@H](NC(=O)[C@H](C)NC(=O)[C@@H]1CSSC[C@H](NC(=O)[C@@H](N)CCCCNC(=O)COCCOCCNC(=O)CCCCCCCCCCCCCCCCCCC(=O)O)C(=O)N[C@@H](CC(N)=O)C(=O)N[C@@H]([C@@H](C)O)C(=O)N[C@@H](C)C(=O)N[C@@H]([C@@H](C)O)C(=O)N1)[C@@H](C)O)C(=O)N1CCC[C@H]1C(=O)N[C@@H](CO)C(=O)N[C@@H](CO)C(=O)N[C@H](C(=O)N[C@@H](CC(N)=O)C(=O)N[C@H](C(=O)NCC(=O)N[C@@H](CO)C(=O)N[C@@H](CC(N)=O)C(=O)N[C@H](C(=O)N[C@@H](Cc1ccc(O)cc1)C(N)=O)[C@@H](C)O)C(C)C)[C@@H](C)O
notes: also called compound 43

Numbered stars: 1 amine (or outer) side, 2 acyl side, 3 side chain; on linkers, the order of the positions; unused ones are H or OH. Bridge positions count the residues as written; N and C are the ends. Side chains are listed from the residue outwards. Ends that are not written are not given here. * marks the point of attachment. C20 diacid = O=C(O)CCCCCCCCCCCCCCCCCCC(=O)*; γGlu = O=C(O)[C@H](CCC(=O)[*:2])N[*:1]; AEEA = NCCOCCOCC(=O)O

The assay addresses T1, human amylin receptor (human, UniProt P30988 25-474; O60896 24-148, limits assumed).
T1 construct: whole, on cells; Used as cell membranes prepared from the Amylin 3(a)/CRE-luc BHK cells (Assay V); also called hAmylin-R; hAmylinR
T1 sequence (looked up) 1: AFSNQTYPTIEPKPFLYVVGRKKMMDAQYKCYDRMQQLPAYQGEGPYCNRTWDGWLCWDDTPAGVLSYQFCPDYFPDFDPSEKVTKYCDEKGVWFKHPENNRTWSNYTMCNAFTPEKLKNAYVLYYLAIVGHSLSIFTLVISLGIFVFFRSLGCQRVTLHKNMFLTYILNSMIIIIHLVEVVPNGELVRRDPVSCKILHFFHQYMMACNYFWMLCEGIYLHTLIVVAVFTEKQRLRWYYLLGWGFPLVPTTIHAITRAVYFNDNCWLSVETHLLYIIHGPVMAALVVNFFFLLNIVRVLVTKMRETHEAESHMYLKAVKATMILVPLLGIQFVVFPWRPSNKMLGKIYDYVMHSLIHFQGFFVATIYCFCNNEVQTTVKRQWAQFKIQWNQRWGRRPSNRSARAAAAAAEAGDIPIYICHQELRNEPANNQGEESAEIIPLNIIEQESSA
T1 sequence (looked up) 2: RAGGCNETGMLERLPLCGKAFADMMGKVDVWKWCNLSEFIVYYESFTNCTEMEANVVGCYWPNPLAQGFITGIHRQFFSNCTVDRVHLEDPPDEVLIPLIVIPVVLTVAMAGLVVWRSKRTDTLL
Briefly: SPA competition vs 125I-rat amylin, membranes of amylin 3(a) receptor BHK cells (Assay V). Summed up:
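SPA beads with BHK Amylin 3(a)/CRE-luc cell membranes (35 ng/μL final) in 50 mM Hepes pH 7.4, 1 mM CaCl2, 5 mM MgCl₂, 0.1% OA, 0.02% Tween20.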
Take B1: the IC50 came out at 0.427 nM.
Regarding B2, the IC50 is 0.525 nM.
For B3 the value was 0.121 nM; for B4, 0.403 nM; for B5, 0.195 nM.
For B6 the value was 0.076 nM.

(Values after patent US20140087995A1 (published 2014).)
